Columns and labels:
[1] = molecular target: biotinylated maltose binding protein (MBP-AviTag fusion, Avidity, LLC) [MBP: P0AEX9]; experiment: affinity column, elution with 5 mM d-biotin
[2] = molecular target: biotinylated maltose binding protein (MBP-AviTag fusion, Avidity, LLC) [MBP: P0AEX9]; experiment: SPR (BIAcoreX), biotinylated MBP-AviTag as immobilised ligand
[3] = molecular target: biotinylated maltose binding protein (MBP-AviTag fusion, Avidity, LLC) [MBP: P0AEX9]; experiment: SPR, biotinylated MBP row of Table 2; footnote: value determined by the surface plasmon resonance method described in Qureshi and Wong (2002)

Chain of wild-type streptavidin (P22629 25-183 limits assumed): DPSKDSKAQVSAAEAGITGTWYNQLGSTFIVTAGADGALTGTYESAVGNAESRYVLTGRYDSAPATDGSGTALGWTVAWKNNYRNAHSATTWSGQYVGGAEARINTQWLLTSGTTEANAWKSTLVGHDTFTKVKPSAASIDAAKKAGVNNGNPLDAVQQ

Substance | recovery from affinity column [1] [%] | Kd [2] [nM] | koff [2] [s⁻¹] | kon [2] [M⁻¹ s⁻¹] | kon [3] [M⁻¹ s⁻¹]
streptavidin mutein SBPM18 (S27A, G48T) (designed binder) | 90 | 11.5 | 0.00265 | 230000 | –
wild-type streptavidin (from UniProt P22629 25-183) | – | – | – | – | 5.13e+06

Source: patent publication US20140378657A1
